Experimental data reported in the DeepSol protein solubility set.

test: soluble on expression in E. coli; label from the status in PepcDB or PDB records

Sequence | soluble on expression in E. coli
RENFPGVSWDSLPDELLLGIFSCLCLPELLKVSGVCKRWYRLASDESLWQTLDEFRVQHMDLSNSVIEVSTLHGILSQCSKLQNLSLEGLRLSDPIVNTLAKNSNLVRLNLSGCSGFSEFALQTLLSSCSRLDELNLSWCFDFTEKHVQVAVAHVSETITQLNLSGYRKNLQKSDLSTLVRRCPNLVHLDLSDSVMLKNDCFQEFFQLNYLQHLSLSRCYDIIPETLLELGEIPTLKTLQVFGIVPDGTLQLLKEALPHLQINCSHFTTIAR | soluble
RIPVKYGNADGEYCKFPFLFNGKEYNSCTDTGRSDGFLWCSTTYNFEKDGKYGFCPHEALFTM | soluble
RKILDSKAIDLMNALMRLNQIRPGLQYKLLSQSGPVHAPVFTMSVDVDGTTYEASGPSKKTAKLHVAVKVLQAMGYPTGFDADI | soluble
RLSDVLSADVYQQAHSPLSLALGVDIGGHPMVVDLAKMPHLLVAGTTGSGKSVGINAMILSILFKASPEQVRLIMVDPKMLELSVYDGIPHLLTPVVTDMKEAASALRWCVEEMERRYRLMAALGVRNLAGYNTKITEAAANGQPLLNPLWKPVDSMDETAPELQALPYVVVVIDELADMMMVVGKKVEQLIARIAQKARAAGIHMILATQRPSV | not soluble
RNAAHQLYYRPTPDDGYLLAGYPWFDVRARDLFVALPGCTLCVEAPERFERIVNTVIPAMERYMRLHEDDDTIHGLHEPDVGIWAIWAIQQYARRNGLEAAKRFGSFVSEVVSYYLSAQHPTAQIRENGLLYVLGTGFPLSWMDAKLNGKAVIPREGYLVELNALWYNALCFERELNGEKPEIGEIISRIERSFPDTFLNCYNYLFDYVQDGKAQDWSVRPNMLFAISLPYSPLQRDRQLQVLEIITRELLTPKGLRSLSPKSEGYRPYCRGKQEERELAYYNGSVWPWLLGQYTEAYLRLYGNSGVTFLERMLIGMEEELQMHGIGTISELFDGNPPFMGRGAISFAMSVGEILRAKELLNRTESDMHLSVRHMYNYTKWKG | not soluble
RNEHTGELRLGASTTIAQYVLPPLLARFIEKFPQVSLSLFSGNSSEVEKALQEHRIDLALVEGNTRQPNLKYTPFLQDELVAIVHTHSKWMDYDEITLDELKEVPLVLRERGSGTLDVLITALHKHNIKLSDLTIRMHLGSTESIK | not soluble
RPAEEIIQGQIEVTEYRVSSKVPGRIKELRVSEGQQVQAGDTLAVIEAPDVAAKMEQAKAAEAAAQAQNAKALKGARSEQIQAAYEMWQKAQAGVAIATKTHQRVQNLYDQGVVPAQKLDEATAQRDAAIATQKAAEAQYNMARNGAEREDKLAASALVDRARGAVAEVESYINETYLIAPRAGEVSEIFPKAGELVGTGAPIMNIAEMGDMWASFAVRED | not soluble
RPDPFPQNGLPAARLAMVAREMGHIAPFVRAVYAAQFGRGLVISDPQVLAECWAEAGLPPEAMEQAKSPEIKAALFAQGERAAALDLFGAPSFVVGEEVFWGDDRLDQALALAAQS | not soluble
RSEMHEECSPDFTAQFHLAAEHTAHIFQHLPETEPDDFQTALDTLRGELDTLRTHSSGTQSHILLQQLQLIARQLEPYYRAYRQIPHRQPQNAA | not soluble
RTLGEVWKERLNQMTKEEFTRYRKEAIIEVDRSAAKHARKEGNVTGGHPVSRGTAKLRWLVERRFLEPVGKVIDLGCGRGGWCYYMATQKRVQEVRGYTKGGPGHEEPQLVQSYGWNIVTMKSGVDVFYRPSECCDTLLCDIGESSSSAEVEEHRTIRVLEMVEDWLHRGPREFCVKVLCPYMPKVIEKMELLQRRYGGGLVRNPLSRNSTHEMYWVSRASGNVVHSVNMTSQVLLGRMEKRTWKGPQYEEDVNLGSGTRAV | soluble
RTVAQNASETTVSYDTDTAVLSEADVLRIALSENATVKVADMDVRKQEYARRAARADLFPKVDLNGVYSHTLKKQVLYIDMPGFSSSEGIEMGRTHNTQGGVNVSMPLVSAQLWKSIAMTGEQLDLALEKARSSRIDLVAEVKKAYLSVLLAEDSYGVFKRSYDNALANYKNISDKFDRGLVAEYDKIRANVQVRNIEPNLLQAQNSVALALWQLKVLMSMEVETPIRLSGSLSDYKEQVYTGYFAADTLISNNSSLRQLDIQRRLAVSADKLNKYSFLPTLNLGGQYTYSLNSNDIKFWGEGQR | not soluble
RYLLRATTDDLYLVHDRQVAPFDGDLNDYYKWLTEQQKAERKEAQALQPVKDTANSAAAKKEQKRREAEFRKLTAPIRKTLTQLENKMDKLGVALAEAEEQLADNSLYEAENKAKLNEVLALQASSKSELEEVEMEWMSAQEELEQMELEFNQ | not soluble
RYRAHCDAIALCAPMFGIIIRLPDWMVRHILDWAEGHQRIREEYAIGTGRWRALPFAVNVLTHSRQRYRRNLRFYADEPRLQVGGPTWHWVREGMLAGDEVLANVEKDTAPTLLLQAEEERVVDNLMHDRYCELRAAAGHPCEGGKPLVIEGAYHEILFEKDAMRSVALNAIVEFFNRHT | not soluble
SAAAMAEQEGSKGSARNRGGVQRVEGKLRASVEKGDYYEAHQMYRTLFFRYMSQSKHIEARELMYSGALLFFSHSQQNSAADLSMLVLESLEKHEVKVTEELLENLAKLFSLMDPNSPERVAFVSRALKWSSGGSGKFGHQKLHQFLAITLWKEQNYYESRYHFLHSSDGEGCANMLVEYSSTRGYRSEVDMFVAQAVLQFLCLKNKTSASVVFTTYTQKHPSIERGPPFVQPLLNFIWFLLLAVEGGKLTVFTVLCEQYQPSLKRDPMYNEYLDRIGQLFFGLPPKQSSSYGGLLGNLLNSLMGSGEDDDVEDGQEDSSPIELD | soluble
SAAARATTPADGEEPAPEAEALAAARERSSRFLSGLELVKQGAEARVFRGHFQGRAAVIKHRFPKGYRHPALEARLGRRRTVQEARALLRCRRAGISAPVVFFVDYASNCLYMEEIEGSVTVRDYIQSTMETEKTPQGLSNLAKTIGQVLARMHDEDLIHGDLTTSNMLLKPPLEQLNIVLIDFGLSFISALPEDKGVDLYVLEKAFLSTHPNTETVFEAFLKSYSTSSKKARPVLKKLDEVRLRGRKRSMVG | soluble
SAARLLRGSLRVLGGHRAPRQLPAARCSHSGGEERLETPSAKKLTDIGIRRIFSPEHDIFRKSVRKFFQEEVIPHHSEWEKAGEVSREVWEKAGKQGLLGVNIAEHLGGIGGDLYSAAIVWEEQAYSNCSGPGFSIHSGIVMSYITNHGSEEQIKHFIPQMTAGKCIGAIAMTEPGAGSDLQGIKTNAKKDGSDWILNGSKVFISNGSLSDVVIVVAVTNHEAPSPAHGISLFLVENGMKGFIKGRKLHKMGLKAQDTAELFFEDIRLPASALLGEENKGFYYIMKELPQERLLIADVAISASEFMFEETRNYVKQRKAFGKTVAHLQTVQHKLAELKTHICVTRAFVDNCLQLHEAKRLDSATACMAKYWASELQNSVAYDCVQLHGGWGYMWEYPIAKAYVDARVQPIYGGTNEIMKELIAREIVFDK | soluble
SADKEKKKKESILDLSKYIDKTIRVKFQGGREASGILKGFDPLLNLVLDGTIEYMRDPDDQYKLTEDTRQLGLVVCRGTSVVLICPQDGMEAIPNPFIQQQDA | soluble
SAGAAPTTAFGQAVIGPPGSGKTTYCLGMSEFLRALGRRVAVVNLDPANEGLPYECAVDVGELVGLGDVMDALRLGPNGGLLYCMEYLEANLDWLRAKLDPLRGHYFLFDCPGQVELCTHHGALRSIFSQMAQWDLRLTAVHLVDSHYCTDPAKFISVLCTSLATMLHVELPHINLLSKMDLIEHYGKLAFNLDYYTEVLDLSYLLDHLASDPFFRHYRQLNEKLVRLIEDYSLVSFIPLNIQDKESIQRVLQAVDKANGYCFGAQEQRSLEAMMSAAMGADFHFSSTLGIQEKYLAPSNQSVEQEAMQL | not soluble
SAGPQQQPPYLHLAELTASQFLEIWKHFDADGNGYIEGKELENFFQELEKARKGSGMMSKSDNFGEKMKEFMQKYDKNSDGKIEMAELAQILPTEENFLLCFRQHVGSSTEFMEAWRKYDTDRSGYIEANELKGFLSDLLKKANRPYDEPKLQEYTQTILRMFDLNGDGKLGLSEMSRLLPVQENFLLKFQGMKLTSEEFNAIFTFYDKDRSGYIDEHELDALLKDLYEKNKKEMNIQQLTNYRKSVMSLAEAGKLYRKDLEIVLCSEPPM | soluble
SAGTQLFRFREEPGPGGNRAVLEVRVPQVLHVQYGMYVWPCAVVLAQYLWFHRRSLPGKAVLEVGAGVSLPGILAAKCGAKVILSDSSEFPHCLDICRQSCQMNNLPQVEVVGLTWGHISKDILSLPPQDIILGSDVFFEPEDFESILATVYFLMQKNPKVQFWSTYQVRSADWSLEGLLYKWDMKCVHIPLESFDADKEDIAESTLPGRHTVEMLIISFAKDSF | soluble
SANLCKRVVDLEKYIVKEAPPTVYYIPDFISEAEEEFLLQQVYRAPKPKWTQLSGRRLQNWGGLPNPKGMLAEKLPDWLLEYTEKISALGAFAGKTANHVLVNEYKPGEGIMPHEDGPLYHPTVTTITVGSHTLLDFYRPVCQAEPDAPQTEESRYMLSLLVQRKSLLILQDDMYKCYLHGIRGVCEDVLSEHVVNISSTGAQVGDTLPRSTRVSLTIRHVPKIIRANLFLGKK | soluble
SASAGGEDCESPAPEADRPHQRPFLIGVSGGTASGKSTVCEKIMELLGQNEVEQRQRKVVILSQDRFYKVLTAEQKAKALKGQYNFDHPDAFDNDLMHRTLKNIVEGKTVEVPTYDFVTHSRLPETTVVYPADVVLFEGILVFYSQEIRDMFHLRLFVDTDSDVRLSRRDKEVCRCDHPTRSGQYGCHQPDRAAHPGHSEW | soluble
SASSQGKNELKLADWMATLPESMHSIPLTNLAIPGSHDSFSFYIDEASPVGPEQPETVQNFVSVFGTVAKKLMRKWLATQTMNFTGQLGAGIRYFDLRISTKPRDPDNELYFAHGLFSAKVNEGLEEINAFLTDHHKEVVFLDFNHFYGMQKYHHEKLVQMLKDIYGNKMCPAIFAQEVSLKYLWEKDYQVLVFYHSPVALEVPFLWPGQMMPAPWANTTDPEKLIQFLQASITERRKKGSFFISQVVLTPKASTVVKGVASGLRETITERALPAMMQWVRTQKPGESGINIVTADFVELGDFISTVIKLNYVFDEGEANT | soluble
SASWLPETLFEIVGQGPAPSKDYYQLLITRTQIIFRWWKISLRSEYRSAKPGETKESHEDFLDNSHLQVQVAVVFGTKILDYVFNLCEGKFDYLERLSDRLLLKIICYLDLEDIASLSQTSSKFEKLCKSDLLWEQIVQSTCDTITPDMRALAKNMGWRQMFLTNNIQLQRQTRKKKQRQENQAEKLA | soluble
SDEFDALRIKWATLLTGGPALDPADSDIAARTDKLAQDANDYWEDMDLSSSRTYIWYALRGNGTSDNVNAVYERLRTMALAATTVGSSLYGNADLKEDILDALDWLYVNSYNSTRSRSAYNWWHWQLGIPMSLNDIAVLLYDDISAARMATYMDTIDYFTPSIGLTGANRAWQAIVVGVRAVIVKDAVKLAAARNGLSGTGIFPYATGGDGFYADGSFVQHTTFAYTGGYGSSVLETTANLMYLLSGSTWSVSDPNQSNVWQWIYEAYRPLLYKGAMMDMVRGREISRSYAQDHAVGHGIVASIVRLAQFAPAPHAAAFKQIAKRVIQEDTFSSFYGDVSTDTIRLAKAIVDDPSIAPAAAPNLYKQYAAMDRAVLQRPGFALGLALYSTRISSYESINSENGRGWYTGAGATYLYNQDLAQYSEDYWPTVDAYRIPGTTVASGTPIASGTGTSSWTGGVSLAGQYGASGMDLSYGAYNLSARKSWFMFDDEIVALGSGISSTAGIPIETVVDNRKLNGAGDNAWTANGAALSTGLGVAQTLTGVNWVHLAGNTADGSDIGYYFPGGATLQTKREARTGTWKQINNRPATPSTAVTRNYETMWIDHGTNPSGASYGYVLLPNKTSAQVGAYAADPAIEIVVNTSGVQSVKEKTLGLVGANFWTDTTQTADLITSNKKASVMTREIADERLEASVSDPTQANNGTIAIELARSAEGYSADPGITVTQLAPTIKFTVNVNGAKGKSFHASFQLG | soluble
